# Assay results published in patent publication US20200270358A1 (BEIJING GEFUCURE BIOTECHNOLOGY, published 2020).
# T1: CD20 antigen on the surface of Daudi and Raji B lymphoma cells (human, UniProt P11836 1-297)
# T1 sequence (looked up): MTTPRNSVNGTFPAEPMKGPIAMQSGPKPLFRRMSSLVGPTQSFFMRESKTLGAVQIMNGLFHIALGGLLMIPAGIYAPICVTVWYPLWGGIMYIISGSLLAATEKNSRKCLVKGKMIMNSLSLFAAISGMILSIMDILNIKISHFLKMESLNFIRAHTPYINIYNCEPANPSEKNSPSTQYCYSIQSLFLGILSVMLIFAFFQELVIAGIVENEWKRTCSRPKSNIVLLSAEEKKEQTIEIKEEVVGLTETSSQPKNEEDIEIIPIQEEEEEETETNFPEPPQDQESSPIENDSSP
# Target: T1, CD20 antigen on the surface of Daudi …
# Experiment: cell-based or functional assay
binder,measurement,value
"recombinant afucosylated anti-human CD20 monoclonal antibody prepared in Example 2 (expressed in the milk of a transgenic cow) (antibody, human IgG1, kappa, N-linked sugar chain at Asn-320, mainly afucosylated glycoform (80% to 100%), of which the G2 glycoform is 30% to 100%) heavy: not shown light: QIVLSQSPAILSASPGEKVTMTCRASSSVSYIHWFQQKPGSSPKPWIYATSNLASGVPVRFSGSGSGTSYSLTISRVEAEDAATYYCQQWTSNPPTFGGGTKLEIKRTVAAPSVFIFPPSDEQLKSGTASVVCLLNNFYPREAKVQWKVDNALQSGNSQESVTEQDSKDSTYSLSSTLTLSKADYEKHKVYACEVTHQGLSSPVTKSFNRGEC","EC50 (read off the curve): ADCC, percentage of cell lysis (LDH release), NK92/CD16a (158 V/V) effector cells, CD20-bearing B lymphoma target cells",~0.5 ng/mL
